Reference: patent US20080206268A1 (RIJKSUNIVERSITEIT TE LEIDEN, published 2008)

B1: HA-1^H/R polymorphic region peptide No. 20, LRDDLLEAR (peptide)
peptide: LRDDLLEAR
notes: synthetic peptide; also called nonameric HA-1^R peptide
B2: HA-1^H/R polymorphic region peptide No. 14, CVLRDDLLE (peptide)
peptide: CVLRDDLLE
notes: as for B1
B3: peptide ECVLRDDLL (peptide)
peptide: ECVLRDDLL
notes: synthetic peptide; also called Peptide No. 12; nonameric HA-1^R peptide
B4: HA-1^H/R polymorphic region peptide No. 22, RDDLLEARR (peptide)
peptide: RDDLLEARR
notes: as for B1
B5: HA-1^H/R polymorphic region peptide No. 2, EKLKECVLR (peptide)
peptide: EKLKECVLR
notes: as for B1
B6: HA-1^H/R polymorphic region peptide No. 6, LKECVLRDD (peptide)
peptide: LKECVLRDD
notes: as for B1
B7: nonameric HA-1^R peptide KECVLRDDL (peptide)
peptide: KECVLRDDL
notes: synthetic peptide; also called Peptide No. 8
B8: HA-1^H/R polymorphic region peptide No. 4, KLKECVLRD (peptide)
peptide: KLKECVLRD
notes: as for B1
B9: decameric HA-1^R peptide VLRDDLLEAR (peptide)
peptide: VLRDDLLEAR
notes: synthetic peptide; also called Peptide No. 18

molecular target: HLA-A1 on HLA typed EBV-LCLs (human); test: cell-based competition HLA peptide binding assay, flow cytometry;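 note: cells given mild acid treatment, then held in medium with 2% FCS and β2 microglobulin, read out as mean cell fluorescence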
Procedure: (§1) Immediately after mild acidic treatment, the cells were washed with 12 ml Iscove's modified Dulbecco's medium (IMDM, Bio Whittaker, Belgium) containing 2% FCS and resuspended in IMDM containing 2% FCS, 1.5 μg/ml β2 microglobulin (Sigma, St. Louis, Mo., US). […] The mean fluorescence expressed by the cells was determined by a FACScalibur flow cytometer (Becton-Dickinson, St. Louis, Mo., US).

Row | binding result | Binder
1 | no binding (tested: 100 to 0.78 µM) | B1
2 | no binding (tested: 100 to 0.78 µM) | B2
3 | no binding (tested: 100 to 0.78 µM) | B3
4 | no binding (tested: 100 to 0.78 µM) | B4
5 | no binding (tested: 100 to 0.78 µM) | B5
6 | no binding (tested: 100 to 0.78 µM) | B6
7 | no binding (tested: 100 to 0.78 µM) | B7
8 | no binding (tested: 100 to 0.78 µM) | B8

molecular target: HLA-A11 on HLA typed EBV-LCLs (human); test: as above
Procedure: as §1

Row | binding result | Binder
9 | no binding (tested: 100 to 0.78 µM) | B1
10 | no binding (tested: 100 to 0.78 µM) | B2
11 | no binding (tested: 100 to 0.78 µM) | B3
12 | no binding (tested: 100 to 0.78 µM) | B4
13 | no binding (tested: 100 to 0.78 µM) | B5
14 | no binding (tested: 100 to 0.78 µM) | B6
15 | no binding (tested: 100 to 0.78 µM) | B7
16 | no binding (tested: 100 to 0.78 µM) | B8

molecular target: HLA-A24 on HLA typed EBV-LCLs (human); test: as above
Procedure: as §1

Row | binding result | Binder
17 | no binding (tested: 100 to 0.78 µM) | B1
18 | no binding (tested: 100 to 0.78 µM) | B2
19 | no binding (tested: 100 to 0.78 µM) | B3
20 | no binding (tested: 100 to 0.78 µM) | B4
21 | no binding (tested: 100 to 0.78 µM) | B5
22 | no binding (tested: 100 to 0.78 µM) | B6
23 | no binding (tested: 100 to 0.78 µM) | B7
24 | no binding (tested: 100 to 0.78 µM) | B8

molecular target: HLA-B7 on HLA typed EBV-LCLs (human); test: as above
Procedure: as §1

Row | binding result | Binder
25 | no binding (tested: 100 to 0.78 µM) | B1
26 | no binding (tested: 100 to 0.78 µM) | B2
27 | no binding (tested: 100 to 0.78 µM) | B3
28 | no binding (tested: 100 to 0.78 µM) | B4
29 | no binding (tested: 100 to 0.78 µM) | B5
30 | no binding (tested: 100 to 0.78 µM) | B6
31 | no binding (tested: 100 to 0.78 µM) | B7
32 | no binding (tested: 100 to 0.78 µM) | B8

molecular target: HLA-A3 on HLA typed EBV-LCLs (human); test: cell-based competition on acid-treated EBV-LCLs against 150 nM fluorescent reference peptide, flow cytometry
Procedure: as §1

Row | IC50 [µM] | Binder
33 | 37.5 | B9
34 | 9.4 | KQSSKALQR [HLA-A3 binder-positive control peptide KQSSKALQR]

molecular target: HLA-B60 on HLA typed EBV-LCLs (human); test: as above
Procedure: as §1

Row | IC50 [µM] | Binder
35 | 3.9 | B7
